The target in the assay is SARS-CoV-2 spike receptor-binding domain (RBD) protein (SARS-CoV-2, UniProt P0DTC2 319-541). Briefly: BLI. A general note: BLI is a label-free optical method that tracks binding on a fibre tip over time.

The text below walks through data of patent publication US20240327505A1 (published 2024).

The term Kd denotes the concentration at which binding is half-saturated.

B1: AB-009620 (antibody, V domains shown)
VH: QITLKESGPTLVKPTQTLTLTCTFSGFSLSTSGVGVGWIRQPPGKALEWLALIYWDDDKRYSPSLKSRLTITKDTSKNQVVLTMTNMDPVDTATYYCAHHEVATVFDYWGQGTLVTVSS
VL: QSALTQPASVSGSPGQSITISCTGTSSDVGAYNYVSWYQQHPGKAPKLMIYEVSNRPSGVSNRFSGSKSGNTASLTISGLQAEDEADYYCSSYTSSSTVFGGGTKLTVL
Turning to B1, the Kd came out at 5.99 nM.
